The target in the assay is T1, human IL-12 (human, UniProt P29460 23-328; P29459 23-219).
T1 construct: also called Interleukin-12
T1 sequence 1: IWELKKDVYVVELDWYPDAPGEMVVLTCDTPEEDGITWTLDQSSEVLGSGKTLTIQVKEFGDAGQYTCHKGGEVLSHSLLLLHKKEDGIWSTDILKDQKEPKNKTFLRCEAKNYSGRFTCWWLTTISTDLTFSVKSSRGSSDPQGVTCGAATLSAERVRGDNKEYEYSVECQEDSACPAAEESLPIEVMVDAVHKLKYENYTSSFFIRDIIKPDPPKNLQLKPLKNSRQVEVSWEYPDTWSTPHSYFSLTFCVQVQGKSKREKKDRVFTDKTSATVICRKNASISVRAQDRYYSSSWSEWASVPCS
T1 sequence 2: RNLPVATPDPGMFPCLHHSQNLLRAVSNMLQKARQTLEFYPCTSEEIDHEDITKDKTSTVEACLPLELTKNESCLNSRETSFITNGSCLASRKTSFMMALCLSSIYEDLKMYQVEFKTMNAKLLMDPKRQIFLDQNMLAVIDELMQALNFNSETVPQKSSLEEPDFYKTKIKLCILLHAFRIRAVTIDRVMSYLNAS
Description: SPR (Biacore T200), 37 C, pH 7.4; captured antibody, IL-12 analyte. The protocol:
The affinity of anti-IL-12 antibodies binding to human IL-12 at pH 7.4 were determined at 37 degrees C. using Biacore T200 instrument (Cytiva). Anti-human Fc antibody (Cytiva) was immobilized onto all flow cells (FCs) of a CM4 sensor chip using amine coupling kit (Cytiva). All antibodies and analytes were prepared in ACES pH 7.4 containing 20 mM ACES, 150 mM NaCl, 0.05% Tween 20, 0.005% NaN₃. Each antibody was captured onto the sensor surface by anti-human Fc antibody. Antibody capture levels were aimed at 50 response unit (RU). 5 nM of human IL-12 were injected as analyte, followed by dissociation. Sensor surface was regenerated each cycle with 3M MgCl₂. […] Based on the results in Table 9, it is observed that binding kinetics of anti-IL-12 antibody AbI variants towards IL-12 were not drastically changed compared to control (−/−).

B1: Anti-IL-12 antibody Ab1 variant W103M VH/- (antibody, name in Kabat numbering)
heavy: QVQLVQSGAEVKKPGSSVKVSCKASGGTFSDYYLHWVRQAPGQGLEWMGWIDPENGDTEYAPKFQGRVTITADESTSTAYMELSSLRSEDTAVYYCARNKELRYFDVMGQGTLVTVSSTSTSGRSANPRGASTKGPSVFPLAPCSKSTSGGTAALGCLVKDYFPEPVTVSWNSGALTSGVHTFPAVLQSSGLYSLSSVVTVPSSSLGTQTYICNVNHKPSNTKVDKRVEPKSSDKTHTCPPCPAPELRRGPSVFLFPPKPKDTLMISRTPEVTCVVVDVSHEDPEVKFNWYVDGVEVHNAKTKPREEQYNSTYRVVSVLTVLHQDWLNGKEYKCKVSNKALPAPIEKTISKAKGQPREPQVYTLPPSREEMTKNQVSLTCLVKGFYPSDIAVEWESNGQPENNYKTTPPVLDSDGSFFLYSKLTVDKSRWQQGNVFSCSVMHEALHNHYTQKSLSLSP
light: DIVMTQSPLSLPVTPGEPASISCRASQSISINLHWYQQKPGQAPRLLIYFASQSISGVPSRFSGSGSGTDFTLTISSLQPEDFATYYCQQSNSFPLTFGQGTKVEIKRTVAAPSVFIFPPSDEQLKSGTASVVCLLNNFYPREAKVQWKVDNALQSGNSQESVTEQDSKDSTYSLSSTLTLSKADYEKHKVYACEVTHQGLSSPVTKSFNRGEC
notes: Ab1 with VH/VL interface substitutions; Kabat numbering
B1 displayed a Kd of 0.631 nM.

B2: Anti-IL-12 antibody Ab1 variant Y91A VH/- (antibody, name in Kabat numbering, V domains shown)
VH: QVQLVQSGAEVKKPGSSVKVSCKASGGTFSDYYLHWVRQAPGQGLEWMGWIDPENGDTEYAPKFQGRVTITADESTSTAYMELSSLRSEDTAVYACARNKELRYFDVWGQGTLVTVSS
VL: DIVMTQSPLSLPVTPGEPASISCRASQSISINLHWYQQKPGQAPRLLIYFASQSISGVPSRFSGSGSGTDFTLTISSLQPEDFATYYCQQSNSFPLTFGQGTKVEIKR
notes: as for B1
Turning to B2, binding was characterised by a dissociation constant (Kd) of 0.948 nM.

B3: Anti-IL-12 antibody Ab1 variant W103M VH/L46Q, Y49A VL (antibody, name in Kabat numbering)
heavy: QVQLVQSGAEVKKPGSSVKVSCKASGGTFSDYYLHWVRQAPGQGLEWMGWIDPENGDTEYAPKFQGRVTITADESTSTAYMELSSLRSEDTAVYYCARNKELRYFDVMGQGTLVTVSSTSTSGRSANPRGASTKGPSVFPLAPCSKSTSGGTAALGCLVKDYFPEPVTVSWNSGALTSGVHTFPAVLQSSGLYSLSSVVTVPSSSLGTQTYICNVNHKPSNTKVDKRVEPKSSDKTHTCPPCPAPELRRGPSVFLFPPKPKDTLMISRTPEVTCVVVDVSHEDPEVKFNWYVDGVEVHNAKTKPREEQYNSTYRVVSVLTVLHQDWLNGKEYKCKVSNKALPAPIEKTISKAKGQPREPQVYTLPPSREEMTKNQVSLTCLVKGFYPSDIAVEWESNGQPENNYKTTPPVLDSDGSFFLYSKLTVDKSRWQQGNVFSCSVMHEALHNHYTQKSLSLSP
light: DIVMTQSPLSLPVTPGEPASISCRASQSISINLHWYQQKPGQAPRQLIAFASQSISGVPSRFSGSGSGTDFTLTISSLQPEDFATYYCQQSNSFPLTFGQGTKVEIKRTVAAPSVFIFPPSDEQLKSGTASVVCLLNNFYPREAKVQWKVDNALQSGNSQESVTEQDSKDSTYSLSSTLTLSKADYEKHKVYACEVTHQGLSSPVTKSFNRGEC
notes: as for B1
Molecule B3 had a Kd of 3.52 nM.

B4: Anti-IL-12 antibody Ab1 variant Y91M VH/L46Q, Y49A, Y87M VL (antibody, name in Kabat numbering, V domains shown)
VH: QVQLVQSGAEVKKPGSSVKVSCKASGGTFSDYYLHWVRQAPGQGLEWMGWIDPENGDTEYAPKFQGRVTITADESTSTAYMELSSLRSEDTAVYMCARNKELRYFDVWGQGTLVTVSS
VL: DIVMTQSPLSLPVTPGEPASISCRASQSISINLHWYQQKPGQAPRQLIAFASQSISGVPSRFSGSGSGTDFTLTISSLQPEDFATYMCQQSNSFPLTFGQGTKVEIKR
notes: as for B1
For B4, binding was characterised by a dissociation constant (Kd) of 3.83 nM.

B5: Anti-IL-12 antibody Ab1 variant Y91M VH/A43Q, P44A, Y49A VL (antibody, name in Kabat numbering, V domains shown)
VH: QVQLVQSGAEVKKPGSSVKVSCKASGGTFSDYYLHWVRQAPGQGLEWMGWIDPENGDTEYAPKFQGRVTITADESTSTAYMELSSLRSEDTAVYMCARNKELRYFDVWGQGTLVTVSS
VL: DIVMTQSPLSLPVTPGEPASISCRASQSISINLHWYQQKPGQQARLLIAFASQSISGVPSRFSGSGSGTDFTLTISSLQPEDFATYYCQQSNSFPLTFGQGTKVEIKR
notes: as for B1
B5: the Kd was 1.69 nM.

B6: Anti-IL-12 antibody Ab1 variant Y91A VH/A43Q, Y49A VL (antibody, name in Kabat numbering, V domains shown)
VH: QVQLVQSGAEVKKPGSSVKVSCKASGGTFSDYYLHWVRQAPGQGLEWMGWIDPENGDTEYAPKFQGRVTITADESTSTAYMELSSLRSEDTAVYACARNKELRYFDVWGQGTLVTVSS
VL: DIVMTQSPLSLPVTPGEPASISCRASQSISINLHWYQQKPGQQPRLLIAFASQSISGVPSRFSGSGSGTDFTLTISSLQPEDFATYYCQQSNSFPLTFGQGTKVEIKR
notes: as for B1
In the case of B6, the affinity, expressed as Kd, was 1.91 nM.

B7: Anti-IL-12 antibody Ab1 variant Y91M VH/L46Q, Y49A VL (antibody, name in Kabat numbering, V domains shown)
VH: QVQLVQSGAEVKKPGSSVKVSCKASGGTFSDYYLHWVRQAPGQGLEWMGWIDPENGDTEYAPKFQGRVTITADESTSTAYMELSSLRSEDTAVYMCARNKELRYFDVWGQGTLVTVSS
VL: DIVMTQSPLSLPVTPGEPASISCRASQSISINLHWYQQKPGQAPRQLIAFASQSISGVPSRFSGSGSGTDFTLTISSLQPEDFATYYCQQSNSFPLTFGQGTKVEIKR
notes: as for B1
In turn, B7 returned a Kd of 3.83 nM.

B8: Anti-IL-12 antibody Ab1 variant W103M VH/A43Q, Y49A VL (antibody, name in Kabat numbering)
heavy: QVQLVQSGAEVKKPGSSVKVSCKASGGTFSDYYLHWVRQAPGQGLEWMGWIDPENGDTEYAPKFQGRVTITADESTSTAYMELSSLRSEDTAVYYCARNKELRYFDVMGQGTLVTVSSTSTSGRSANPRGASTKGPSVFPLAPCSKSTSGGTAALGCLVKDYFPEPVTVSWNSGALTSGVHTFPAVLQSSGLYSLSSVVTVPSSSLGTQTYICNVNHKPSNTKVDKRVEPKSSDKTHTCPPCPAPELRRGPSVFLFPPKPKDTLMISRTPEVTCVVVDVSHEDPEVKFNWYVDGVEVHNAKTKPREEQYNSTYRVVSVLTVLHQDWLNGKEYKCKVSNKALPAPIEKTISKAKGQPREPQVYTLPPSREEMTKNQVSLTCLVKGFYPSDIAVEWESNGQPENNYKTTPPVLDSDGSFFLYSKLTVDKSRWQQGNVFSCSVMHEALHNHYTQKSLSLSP
light: DIVMTQSPLSLPVTPGEPASISCRASQSISINLHWYQQKPGQQPRLLIAFASQSISGVPSRFSGSGSGTDFTLTISSLQPEDFATYYCQQSNSFPLTFGQGTKVEIKRTVAAPSVFIFPPSDEQLKSGTASVVCLLNNFYPREAKVQWKVDNALQSGNSQESVTEQDSKDSTYSLSSTLTLSKADYEKHKVYACEVTHQGLSSPVTKSFNRGEC
notes: as for B1
Take B8: the Kd was 1.45 nM.

B9: Anti-IL-12 antibody Ab1 variant Y91A VH/Y49A, Y87L VL (antibody, name in Kabat numbering, V domains shown)
VH: QVQLVQSGAEVKKPGSSVKVSCKASGGTFSDYYLHWVRQAPGQGLEWMGWIDPENGDTEYAPKFQGRVTITADESTSTAYMELSSLRSEDTAVYACARNKELRYFDVWGQGTLVTVSS
VL: DIVMTQSPLSLPVTPGEPASISCRASQSISINLHWYQQKPGQAPRLLIAFASQSISGVPSRFSGSGSGTDFTLTISSLQPEDFATYLCQQSNSFPLTFGQGTKVEIKR
notes: as for B1
B9: the Kd was 2.82 nM.

B10: Anti-IL-12 antibody Ab1 variant Y91M VH/P44A, Y49A VL (antibody, name in Kabat numbering, V domains shown)
VH: QVQLVQSGAEVKKPGSSVKVSCKASGGTFSDYYLHWVRQAPGQGLEWMGWIDPENGDTEYAPKFQGRVTITADESTSTAYMELSSLRSEDTAVYMCARNKELRYFDVWGQGTLVTVSS
VL: DIVMTQSPLSLPVTPGEPASISCRASQSISINLHWYQQKPGQAARLLIAFASQSISGVPSRFSGSGSGTDFTLTISSLQPEDFATYYCQQSNSFPLTFGQGTKVEIKR
notes: as for B1
With B10, binding was characterised by a dissociation constant (Kd) of 1.83 nM.

B11: Anti-IL-12 antibody Ab1 variant Y91M VH/A43Q, Y49A VL (antibody, name in Kabat numbering, V domains shown)
VH: QVQLVQSGAEVKKPGSSVKVSCKASGGTFSDYYLHWVRQAPGQGLEWMGWIDPENGDTEYAPKFQGRVTITADESTSTAYMELSSLRSEDTAVYMCARNKELRYFDVWGQGTLVTVSS
VL: DIVMTQSPLSLPVTPGEPASISCRASQSISINLHWYQQKPGQQPRLLIAFASQSISGVPSRFSGSGSGTDFTLTISSLQPEDFATYYCQQSNSFPLTFGQGTKVEIKR
notes: as for B1
B11: the Kd was 1.87 nM.

B12: Anti-IL-12 antibody Ab1 variant Y91L VH/- (antibody, name in Kabat numbering, V domains shown)
VH: QVQLVQSGAEVKKPGSSVKVSCKASGGTFSDYYLHWVRQAPGQGLEWMGWIDPENGDTEYAPKFQGRVTITADESTSTAYMELSSLRSEDTAVYLCARNKELRYFDVWGQGTLVTVSS
VL: DIVMTQSPLSLPVTPGEPASISCRASQSISINLHWYQQKPGQAPRLLIYFASQSISGVPSRFSGSGSGTDFTLTISSLQPEDFATYYCQQSNSFPLTFGQGTKVEIKR
notes: as for B1
With B12, the Kd came out at 1.21 nM.

B13: Anti-IL-12 antibody Ab1 variant Y91M VH/Y49A, F98L VL (antibody, name in Kabat numbering, V domains shown)
VH: QVQLVQSGAEVKKPGSSVKVSCKASGGTFSDYYLHWVRQAPGQGLEWMGWIDPENGDTEYAPKFQGRVTITADESTSTAYMELSSLRSEDTAVYMCARNKELRYFDVWGQGTLVTVSS
VL: DIVMTQSPLSLPVTPGEPASISCRASQSISINLHWYQQKPGQAPRLLIAFASQSISGVPSRFSGSGSGTDFTLTISSLQPEDFATYYCQQSNSFPLTLGQGTKVEIKR
notes: as for B1
B13: binding was characterised by a dissociation constant (Kd) of 1.07 nM.

B14: Anti-IL-12 antibody Ab1 variant Y91A VH/P44A, Y49A VL (antibody, name in Kabat numbering, V domains shown)
VH: QVQLVQSGAEVKKPGSSVKVSCKASGGTFSDYYLHWVRQAPGQGLEWMGWIDPENGDTEYAPKFQGRVTITADESTSTAYMELSSLRSEDTAVYACARNKELRYFDVWGQGTLVTVSS
VL: DIVMTQSPLSLPVTPGEPASISCRASQSISINLHWYQQKPGQAARLLIAFASQSISGVPSRFSGSGSGTDFTLTISSLQPEDFATYYCQQSNSFPLTFGQGTKVEIKR
notes: as for B1
For B14, binding was characterised by a dissociation constant (Kd) of 2.32 nM.

B15: Anti-IL-12 antibody Ab1 variant Y91M VH/A43Q, L46Q, Y49A VL (antibody, name in Kabat numbering, V domains shown)
VH: QVQLVQSGAEVKKPGSSVKVSCKASGGTFSDYYLHWVRQAPGQGLEWMGWIDPENGDTEYAPKFQGRVTITADESTSTAYMELSSLRSEDTAVYMCARNKELRYFDVWGQGTLVTVSS
VL: DIVMTQSPLSLPVTPGEPASISCRASQSISINLHWYQQKPGQQPRQLIAFASQSISGVPSRFSGSGSGTDFTLTISSLQPEDFATYYCQQSNSFPLTFGQGTKVEIKR
notes: as for B1
With B15, the Kd is 4.41 nM.

B16: Anti-IL-12 antibody Ab1 variant W103M VH/P44A, Y49A VL (antibody, name in Kabat numbering)
heavy: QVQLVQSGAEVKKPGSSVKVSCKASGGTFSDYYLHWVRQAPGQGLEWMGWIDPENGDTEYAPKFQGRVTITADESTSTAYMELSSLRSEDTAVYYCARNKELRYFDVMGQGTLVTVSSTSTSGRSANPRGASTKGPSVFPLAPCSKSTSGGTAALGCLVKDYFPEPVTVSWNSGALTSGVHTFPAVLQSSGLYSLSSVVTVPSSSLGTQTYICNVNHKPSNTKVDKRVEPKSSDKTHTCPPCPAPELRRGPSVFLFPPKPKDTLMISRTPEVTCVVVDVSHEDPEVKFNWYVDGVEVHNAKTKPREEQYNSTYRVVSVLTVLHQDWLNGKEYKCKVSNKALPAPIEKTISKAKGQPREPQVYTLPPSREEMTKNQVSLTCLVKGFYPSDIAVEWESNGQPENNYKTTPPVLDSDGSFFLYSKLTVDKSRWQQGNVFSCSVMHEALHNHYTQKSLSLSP
light: DIVMTQSPLSLPVTPGEPASISCRASQSISINLHWYQQKPGQAARLLIAFASQSISGVPSRFSGSGSGTDFTLTISSLQPEDFATYYCQQSNSFPLTFGQGTKVEIKRTVAAPSVFIFPPSDEQLKSGTASVVCLLNNFYPREAKVQWKVDNALQSGNSQESVTEQDSKDSTYSLSSTLTLSKADYEKHKVYACEVTHQGLSSPVTKSFNRGEC
notes: as for B1
B16 displayed a Kd of 1.07 nM.

B17: Anti-IL-12 antibody Ab1 variant W103M VH/Y49A, Y87L VL (antibody, name in Kabat numbering)
heavy: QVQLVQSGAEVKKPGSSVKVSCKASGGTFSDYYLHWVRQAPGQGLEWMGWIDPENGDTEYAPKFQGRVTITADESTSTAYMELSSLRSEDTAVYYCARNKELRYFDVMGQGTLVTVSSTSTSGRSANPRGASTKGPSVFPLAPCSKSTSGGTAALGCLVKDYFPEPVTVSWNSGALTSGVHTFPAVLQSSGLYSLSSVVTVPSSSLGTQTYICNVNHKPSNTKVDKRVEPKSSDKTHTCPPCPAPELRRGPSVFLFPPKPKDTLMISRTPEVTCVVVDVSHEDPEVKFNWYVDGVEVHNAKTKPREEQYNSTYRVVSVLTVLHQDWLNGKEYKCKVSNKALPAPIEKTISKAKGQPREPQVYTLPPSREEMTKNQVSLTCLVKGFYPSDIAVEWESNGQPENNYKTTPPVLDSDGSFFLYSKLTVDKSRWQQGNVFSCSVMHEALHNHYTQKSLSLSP
light: DIVMTQSPLSLPVTPGEPASISCRASQSISINLHWYQQKPGQAPRLLIAFASQSISGVPSRFSGSGSGTDFTLTISSLQPEDFATYLCQQSNSFPLTFGQGTKVEIKRTVAAPSVFIFPPSDEQLKSGTASVVCLLNNFYPREAKVQWKVDNALQSGNSQESVTEQDSKDSTYSLSSTLTLSKADYEKHKVYACEVTHQGLSSPVTKSFNRGEC
notes: as for B1
Consider B17, for which the Kd was determined as 1.79 nM. This Kd is about 1.7-fold higher than that of the molecule before.

B18: Anti-IL-12 antibody Ab1 variant Y91A VH/L46Q, Y49A VL (antibody, name in Kabat numbering, V domains shown)
VH: QVQLVQSGAEVKKPGSSVKVSCKASGGTFSDYYLHWVRQAPGQGLEWMGWIDPENGDTEYAPKFQGRVTITADESTSTAYMELSSLRSEDTAVYACARNKELRYFDVWGQGTLVTVSS
VL: DIVMTQSPLSLPVTPGEPASISCRASQSISINLHWYQQKPGQAPRQLIAFASQSISGVPSRFSGSGSGTDFTLTISSLQPEDFATYYCQQSNSFPLTFGQGTKVEIKR
notes: as for B1
B18 came in with a Kd of 3.97 nM.

B19: Anti-IL-12 antibody Ab1 variant Y91M VH/- (antibody, name in Kabat numbering, V domains shown)
VH: QVQLVQSGAEVKKPGSSVKVSCKASGGTFSDYYLHWVRQAPGQGLEWMGWIDPENGDTEYAPKFQGRVTITADESTSTAYMELSSLRSEDTAVYMCARNKELRYFDVWGQGTLVTVSS
VL: DIVMTQSPLSLPVTPGEPASISCRASQSISINLHWYQQKPGQAPRLLIYFASQSISGVPSRFSGSGSGTDFTLTISSLQPEDFATYYCQQSNSFPLTFGQGTKVEIKR
notes: as for B1
As to B19, binding was characterised by a dissociation constant (Kd) of 0.827 nM.

(Values after patent publication US20240343771A1 (Chugai, published 2024).)
